These results are taken from patent publication US5962294A, “Compositions and methods for the identification and synthesis of sialyltransferases” (The Regents of the University of California, priority 1993, dated 1999).

The target of data set [1] is T1, ST3 (Homo sapiens, UniProt Q11206).
T1 construct: A truncated form of ST3, lacking the first 39 amino acids of the long-form open reading frame; made in house; host or cells: COS-1 (concentrated culture medium)
T1 sequence (Q11206 41-333): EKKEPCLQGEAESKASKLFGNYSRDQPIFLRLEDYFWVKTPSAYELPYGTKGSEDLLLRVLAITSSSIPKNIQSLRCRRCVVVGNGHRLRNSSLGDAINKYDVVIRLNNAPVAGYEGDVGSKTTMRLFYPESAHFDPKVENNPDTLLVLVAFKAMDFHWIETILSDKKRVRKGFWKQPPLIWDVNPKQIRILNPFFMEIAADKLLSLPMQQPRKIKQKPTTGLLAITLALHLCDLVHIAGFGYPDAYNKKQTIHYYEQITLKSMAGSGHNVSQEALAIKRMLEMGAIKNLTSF
Briefly: Acceptor specificity of soluble ST3 (AZ3, concentrated COS-1 media). It counts as biochemical.

The target of data set [2] is T2, ST3O (Sus scrofa, UniProt Q02745).
T2 sequence (Q02745 28-343 limits assumed): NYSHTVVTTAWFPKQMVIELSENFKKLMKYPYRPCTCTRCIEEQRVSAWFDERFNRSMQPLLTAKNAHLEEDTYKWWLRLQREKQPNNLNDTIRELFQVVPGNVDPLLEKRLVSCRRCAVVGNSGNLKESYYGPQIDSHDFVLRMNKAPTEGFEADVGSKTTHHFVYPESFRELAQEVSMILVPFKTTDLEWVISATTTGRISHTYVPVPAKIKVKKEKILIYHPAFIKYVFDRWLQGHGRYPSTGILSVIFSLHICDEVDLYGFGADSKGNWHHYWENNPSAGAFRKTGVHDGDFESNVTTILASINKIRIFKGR
Briefly: Acceptor specificity of ST3O (Table 4). The following applies: acceptor 0.2 mM.

Data set [3] deals with T3, α2,3-N sialyltransferase (Rattus norvegicus, UniProt Q02734).
T3 construct: made in house; host or cells: COS-1 (concentrated culture medium, plasmid pBD122)
T3 sequence (Q02734 29-374 limits assumed): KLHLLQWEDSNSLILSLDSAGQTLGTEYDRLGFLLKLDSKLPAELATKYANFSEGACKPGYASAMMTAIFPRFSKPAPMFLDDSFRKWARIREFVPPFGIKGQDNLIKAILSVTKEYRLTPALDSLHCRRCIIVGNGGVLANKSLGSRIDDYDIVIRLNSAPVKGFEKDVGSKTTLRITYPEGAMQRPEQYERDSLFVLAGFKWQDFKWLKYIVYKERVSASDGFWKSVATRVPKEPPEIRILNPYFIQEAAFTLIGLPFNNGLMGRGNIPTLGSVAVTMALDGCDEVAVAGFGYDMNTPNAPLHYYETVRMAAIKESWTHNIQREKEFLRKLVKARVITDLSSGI
Briefly: Sialyltransferase assay of soluble rat α2,3-N secreted from COS-1 cells (pBD122). The class given is biochemical. As for the experimental part: In order to produce a soluble form of the sialyltransferase for enzymatic characterization, a fusion protein containing the catalytic domain of the enzyme and the insulin cleavable signal sequence was constructed in the mammalian expression vector pSVL (Pharmacia). […] PCR reactions were carried out as described above with annealing temperature at 55° C.

Data set [4] has as its target T4, ST3N (Rattus norvegicus, UniProt Q02734).
T4 sequence (Q02734 29-374 limits assumed): T3 sequence (Q02734 29-374 limits assumed)
Briefly: Acceptor specificity of ST3N (Table 4). The following applies: acceptor 0.2 mM.

Data set [5] has as its target T5, human ST3N (Homo sapiens, UniProt Q11203).
T5 sequence (Q11203 62-375): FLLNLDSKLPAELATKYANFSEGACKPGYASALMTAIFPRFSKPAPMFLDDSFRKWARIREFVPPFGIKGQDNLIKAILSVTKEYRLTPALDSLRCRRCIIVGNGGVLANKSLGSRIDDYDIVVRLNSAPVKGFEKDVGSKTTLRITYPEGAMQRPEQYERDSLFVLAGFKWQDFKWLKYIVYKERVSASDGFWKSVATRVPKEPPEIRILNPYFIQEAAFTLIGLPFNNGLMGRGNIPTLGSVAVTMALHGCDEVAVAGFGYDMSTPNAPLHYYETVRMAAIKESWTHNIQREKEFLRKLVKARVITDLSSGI
Briefly: Acceptor specificity of soluble human ST3N (protein A fusion from COS-1 cells, on IgG Sepharose). The following applies: acceptor 0.2 mM; relative to LNT.

In data set [6] the target is T6, rat ST3N (Rattus norvegicus, UniProt Q02734).
T6 sequence (Q02734 29-374 limits assumed): T3 sequence (Q02734 29-374 limits assumed)
Briefly: Acceptor specificity of soluble rat ST3N fusion protein (Table 3). The following applies: acceptor 0.2 mM; relative to LNT.

On to “Asialo-α1 -acid glycoprotein: glycoprotein acceptor (Galβ1,4GlcNAc-R)”, for which the “acceptor substrate for ST3 enzyme (in words)” value in data set [1] is on record as “sialic acid was incorporated”. In data set [2], the “Relative rate (%) ST30” value is on record as 0%. Besides, the “acceptor utilisation by secreted α2,3-N enzyme” value in data set [3] was “capable of sialylating”. The “Relative rate (%) ST3N” value in data set [4] is listed as 9%. In data set [5], the “Relative activity (%) Human” value came out at 14%. Moreover, the “Relative activity (%) Rat” value in data set [6] is 9%.
